# B1: RTP4 (parent)
# chain: TYWEHWTSQGQVRMRLFGQRCQKC
# Variants of: B1
# Assay: protein stability index of a GFP-peptide fusion (GPS, HEK-293T) (PSI 1-6); higher = more stable
# Details: c terminus: a fixed tail appended
# 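Also: lentivirally expressed fusions sorted by FACS into six bins by GFP to DsRed ratio, PSI derived from sequencing read proportions per bin multiplied by bin number.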
row,Variant,protein stability index
1,TYWEHWTHQGQVRMRLFGQRCQKC,2.56
2,TYWEHWTQQGQVRMRLFGQRCQKC,1.77
3,TYWEHWTLQGQVRMRLFGQRCQKC,1.23
4,TYWEHWTKQGQVRMRLFGQRCQKC,2.5
5,TYWEHWTAQGQVRMRLFGQRCQKC,3.23
6,TYWEHWTGQGQVRMRLFGQRCQKC,2.05
7,TYWEHWTDQGQVRMRLFGQRCQKC,1.87
8,TYWEHWTPQGQVRMRLFGQRCQKC,1.66
9,TYWEHWTVQGQVRMRLFGQRCQKC,1.67
10,TYWEHWTYQGQVRMRLFGQRCQKC,1.82
11,TYWEHWTRQGQVRMRLFGQRCQKC,1.89
12,TYWEHWTTQGQVRMRLFGQRCQKC,3.23
13,TYWEHWTIQGQVRMRLFGQRCQKC,2.05
14,TYWEHWTCQGQVRMRLFGQRCQKC,1.79
15,TYWEHWTEQGQVRMRLFGQRCQKC,1.76
16,TYWEHWTMQGQVRMRLFGQRCQKC,3.02
17,TYWEHWTNQGQVRMRLFGQRCQKC,1.32
18,TYWEHWTSQGQVRQRLFGQRCQKC,1.73
19,TYWEHWTSQGQVRARLFGQRCQKC,2
20,TYWEHWTSQGQVRVRLFGQRCQKC,1.89
21,TYWEHWTSQGQVRWRLFGQRCQKC,1.77
22,TYWEHWTSQGQVRNRLFGQRCQKC,1.69
23,TYWEHWTSQGQVRERLFGQRCQKC,2.36
24,TYWEHWTSQGQVRFRLFGQRCQKC,1.63

row,Variant,protein stability index
1,TYWEHWTSQGQVRDRLFGQRCQKC,2.05
2,TYWEHWTSQGQVRRRLFGQRCQKC,2.29
3,TYWEHWTSQGQVRTRLFGQRCQKC,1.84
4,TYWEHWTSQGQVRYRLFGQRCQKC,1.9
5,TYWEHWTSQGQVRKRLFGQRCQKC,2.9
6,TYWEHWTSQGQVRHRLFGQRCQKC,2.18
7,TYWEHWTSQGQVRLRLFGQRCQKC,1.39
8,TYWEHWTSQGQVRSRLFGQRCQKC,1.5
9,TYWEHWTSQGQVRGRLFGQRCQKC,2.51
10,TYWEHWTSQGQVRCRLFGQRCQKC,2.58
11,TYWEHWTSQGQVRMRIFGQRCQKC,1.62
12,TYWEHWTSQGQVRMRCFGQRCQKC,2.99
13,TYWEHWTSQGQVRMRVFGQRCQKC,1.81
14,TYWEHWTSQGQVRMRRFGQRCQKC,1.91
15,TYWEHWTSQGQVRMRYFGQRCQKC,2.61
16,TYWEHWTSQGQVRMRAFGQRCQKC,1.6
17,TYWEHWTSQGQVRMRKFGQRCQKC,1.25
18,TYWEHWTSQGQVRMRWFGQRCQKC,1.62
19,TYWEHWTSQGQVRMRHFGQRCQKC,2.34
20,TYWEHWTSQGQVRMRFFGQRCQKC,2.22
21,TYWEHWTSQGQVRMRDFGQRCQKC,2.85
22,TYWEHWTSQGQVRMRGFGQRCQKC,2.13
23,TYWEHWTSQGQVRMRNFGQRCQKC,2.43
24,TYWEHWTSQGQVRMRTFGQRCQKC,1.14

row,Variant,protein stability index
1,TYWEHWTSQGQVRMRSFGQRCQKC,1.75
2,TYWEHWTSQGQVRMRPFGQRCQKC,2.13
3,TYWEHWTSQGQVRMRQFGQRCQKC,1.79
4,TYWEHWTSQGQPRMRLFGQRCQKC,1.98
5,TYWEHWTSQGQYRMRLFGQRCQKC,2.65
6,TYWEHWTSQGQQRMRLFGQRCQKC,1.51
7,TYWEHWTSQGQDRMRLFGQRCQKC,1.7
8,TYWEHWTSQGQKRMRLFGQRCQKC,1.57
9,TYWEHWTSQGQARMRLFGQRCQKC,1.04
10,TYWEHWTSQGQERMRLFGQRCQKC,2.19
11,TYWEHWTSQGQHRMRLFGQRCQKC,2.21
12,TYWEHWTSQGQTRMRLFGQRCQKC,2.09
13,TYWEHWTSQGQIRMRLFGQRCQKC,1.61
14,TYWEHWTSQGQNRMRLFGQRCQKC,1.65
15,TYWEHWTSQGQCRMRLFGQRCQKC,2.42
16,TYWEHWTSQGQRRMRLFGQRCQKC,1.76
17,TYWEHWTSQGQWRMRLFGQRCQKC,3.46
18,TYWEHWTSQGQVRMRLLGQRCQKC,1.85
19,TYWEHWTSQGQVRMRLSGQRCQKC,2.27
20,TYWEHWTSQGQVRMRLHGQRCQKC,2.79
21,TYWEHWTSQGQVRMRLPGQRCQKC,2.38
22,TYWEHWTSQGQVRMRLMGQRCQKC,2.37
23,TYWEHWTSQGQVRMRLQGQRCQKC,2.26
24,TYWEHWTSQGQVRMRLYGQRCQKC,1.55

row,Variant,protein stability index
1,TYWEHWTSQGQVRMRLNGQRCQKC,2.9
2,TYWEHWTSQGQVRMRLWGQRCQKC,2.44
3,TYWEHWTSQGQVRMRLGGQRCQKC,2.31
4,TYWEHWTSQGQVRMRLIGQRCQKC,1.67
5,TYWEHWTSQGQVRMRLCGQRCQKC,2.57
6,TYWEHWTSQGQVRMRLDGQRCQKC,2.01
7,TYWEHWTSQGQVRMRLAGQRCQKC,1.87
8,TYWEHWTSQGQVRMRLTGQRCQKC,2.02
9,TYWEHWTSQGQVRMRLEGQRCQKC,2.29
10,TYWEHWTSQGQVRMRLKGQRCQKC,1.92
11,TYWEHWTSQQQVRMRLFGQRCQKC,1.8
12,TYWEHWTSQHQVRMRLFGQRCQKC,1.76
13,TYWEHWTSQRQVRMRLFGQRCQKC,1.69
14,TYWEHWTSQLQVRMRLFGQRCQKC,1.89
15,TYWEHWTSQWQVRMRLFGQRCQKC,2.07
16,TYWEHWTSQTQVRMRLFGQRCQKC,2.27
17,TYWEHWTSQIQVRMRLFGQRCQKC,2.47
18,TYWEHWTSQFQVRMRLFGQRCQKC,2.53
19,TYWEHWTSQSQVRMRLFGQRCQKC,2.39
20,TYWEHWTSQCQVRMRLFGQRCQKC,1.87
21,TYWEHWTSQAQVRMRLFGQRCQKC,1.33
22,TYWEHWTSQDQVRMRLFGQRCQKC,2.21
23,TYWEHWTSQPQVRMRLFGQRCQKC,1.91
24,TYWEHWTSQYQVRMRLFGQRCQKC,1.92

row,Variant,protein stability index
1,TYWEHWTSQMQVRMRLFGQRCQKC,1.68
2,TYWEHWTSQGQVRMRLFGLRCQKC,1.04
3,TYWEHWTSQGQVRMRLFGNRCQKC,1.58
4,TYWEHWTSQGQVRMRLFGARCQKC,1.98
5,TYWEHWTSQGQVRMRLFGDRCQKC,1.97
6,TYWEHWTSQGQVRMRLFGRRCQKC,1.46
7,TYWEHWTSQGQVRMRLFGGRCQKC,1.45
8,TYWEHWTSQGQVRMRLFGPRCQKC,1.25
9,TYWEHWTSQGQVRMRLFGKRCQKC,1.8
10,TYWEHWTSQGQVRMRLFGERCQKC,1.62
11,TYWEHWTSQGQVRMRLFGFRCQKC,1.66
12,TYWEHWTSQGQVRMRLFGIRCQKC,2.31
13,TYWEHWTSQGQVRMRLFGCRCQKC,2.9
14,TYWEHWTSQGQVRMRLFGHRCQKC,2.6
15,TYWEHWVSQGQVRMRLFGQRCQKC,1.93
16,TYWEHWWSQGQVRMRLFGQRCQKC,2.06
17,TYWEHWYSQGQVRMRLFGQRCQKC,1.2
18,TYWEHWTSQGQVEMRLFGQRCQKC,1.74
19,TYWEHWTSQGQVVMRLFGQRCQKC,1.65
20,TYWEHWTSQGQVNMRLFGQRCQKC,1.54
21,TYWEHWTSQGQVLMRLFGQRCQKC,1.69
22,TYWEHWTSQGQVDMRLFGQRCQKC,2.04
23,TYWEHWTSQGQVIMRLFGQRCQKC,2.76
24,TYWEHWTSQGQVPMRLFGQRCQKC,1.92

row,Variant,protein stability index
1,TYWEHWTSQGQVHMRLFGQRCQKC,2.4
2,TYWEHWTSQGQVCMRLFGQRCQKC,2.78
3,TYWEHWTSQGQVWMRLFGQRCQKC,2.11
4,TYWEHWTSQGQVSMRLFGQRCQKC,1.59
5,TYWEHWTSQGQVGMRLFGQRCQKC,1.65
6,TYWEHWTSQGQVRMRLFHQRCQKC,2.23
7,TYWEHWTSQGQVRMRLFEQRCQKC,2.24
8,TYWEHWTSQGQVRMRLFPQRCQKC,1.81
9,TYWEHWTSQGQVRMRLFFQRCQKC,1.87
10,TYWEHWTSQGQVRMRLFNQRCQKC,2.14
11,TYWEHWTSQGQVRMRLFRQRCQKC,2.02
12,TYWEHWTSQGQVRMRLFYQRCQKC,2.41
13,TYWEHWTSQGQVRMRLFIQRCQKC,2.39
14,TYWEHWTSQGQVRMRLFDQRCQKC,2.04
15,TYWEHWTSQGQVRMRLFAQRCQKC,1.96
16,TYWEHWTSQGQVRMRLFWQRCQKC,1.74
17,TYWEHWTSQGQVRMRLFMQRCQKC,1.36
18,TYWEHWTSQGQVRMRLFSQRCQKC,1.46
19,TYWEHWTSQGQVRMRLFQQRCQKC,1.4
20,TYWEHWTSQGQVRMRLFKQRCQKC,1.86
21,TYWEHWTSQGQVRMRLFTQRCQKC,1.91
22,TYWEHWTSQGQVRMRLFCQRCQKC,2.03
23,TYWEHWTSQGQVRMPLFGQRCQKC,1.87
24,TYWEHWTSQGQVRMLLFGQRCQKC,1.97

row,Variant,protein stability index
1,TYWEHWTSQGQVRMALFGQRCQKC,2.06
2,TYWEHWTSQGQVRMELFGQRCQKC,2.07
3,TYWEHWTSQGQVRMKLFGQRCQKC,2.31
4,TYWEHWTSQGQVRMDLFGQRCQKC,2.71
5,TYWEHWTSQGQVRMTLFGQRCQKC,1.7
6,TYWEHWTSQGQVRMSLFGQRCQKC,1.21
7,TYWEHWTSQGQVRMGLFGQRCQKC,1.6
8,TYWEHWTSQGQVRMNLFGQRCQKC,2.1
9,TYWEHWTSQGQVRMILFGQRCQKC,2.12
10,TYWEHWTSQGQVRMFLFGQRCQKC,1.75
11,TYWEHWTSQGQVRMMLFGQRCQKC,2.09
12,TYWEHWTSQGQVRMVLFGQRCQKC,1.64
13,TYWEHWTSQGQVRMHLFGQRCQKC,1.85
14,TYWEHWTSQGQVRMQLFGQRCQKC,1.86
15,TYWEHWTSQGQVRMCLFGQRCQKC,3.05
16,TYWEHWTSQGHVRMRLFGQRCQKC,1.65
17,TYWEHWTSQGDVRMRLFGQRCQKC,2.41
18,TYWEHWTSQGNVRMRLFGQRCQKC,2.01
19,TYWEHWTSQGPVRMRLFGQRCQKC,2.14
20,TYWEHWTSQGAVRMRLFGQRCQKC,1.84
21,TYWEHWTSQGGVRMRLFGQRCQKC,2.64
22,TYWEHWTSQGIVRMRLFGQRCQKC,2.31
23,TYWEHWTSQGKVRMRLFGQRCQKC,2.48
24,TYWEHWTSQGCVRMRLFGQRCQKC,3.14

row,Variant,protein stability index
1,TYWEHWTSQGSVRMRLFGQRCQKC,2.59
2,TYWEHWTSQGRVRMRLFGQRCQKC,2.6
3,TYWEHWTSQGLVRMRLFGQRCQKC,2.02
4,TYWEHWTSQGMVRMRLFGQRCQKC,2.4
5,TYWEHWTSQGYVRMRLFGQRCQKC,1.58
6,TYWEHWTSCGQVRMRLFGQRCQKC,1.48
7,TYWEHWTSFGQVRMRLFGQRCQKC,1.77
8,TYWEHWTSTGQVRMRLFGQRCQKC,1.8
9,TYWEHWTSPGQVRMRLFGQRCQKC,1.6
10,TYWEHWTSVGQVRMRLFGQRCQKC,2.5
11,TYWEHWTSEGQVRMRLFGQRCQKC,2.02
12,TYWEHWTSIGQVRMRLFGQRCQKC,2.08
13,TYWEHWTSNGQVRMRLFGQRCQKC,2.08
14,TYWEHWTSAGQVRMRLFGQRCQKC,1.95
15,TYWEHWTSWGQVRMRLFGQRCQKC,1.69
16,TYWEHWTSHGQVRMRLFGQRCQKC,1.18
17,TYWEHWTSGGQVRMRLFGQRCQKC,1.27
18,TYWEHWTSDGQVRMRLFGQRCQKC,1.4
19,TYWEHWTSKGQVRMRLFGQRCQKC,2.17
20,TYWEHWTSRGQVRMRLFGQRCQKC,2.24
